Here are results for two molecules from paper PMC3662668, “Structural and Functional Basis for Inhibition of Erythrocyte Invasion by Antibodies that Target Plasmodium falciparum EBA-175” (PLoS Pathogens, 2013).

This assay addresses T1, wildtype PfEBA-175 RII expressed on the surface of HEK293T cells (Plasmodium falciparum, strain not …, UniProt Q8IBE8).
T1 construct: PfEBA-175 of P. falciparum, region II; The pRE4 vector supplies the signal and membrane anchor for surface display (surmise); also called wildtype RII; source: HEK293T, transfected (pRE4 vector), on the cell surface; not shown: GFP, C-terminal, kept
The experiment in a line: immunostaining of cells or tissue; DBL proteins on the surface of transfected HEK293T cells, probed with 10 µg/ml R217 or R218, then Alexafluor-546 anti-mouse IgG1; fluorescence microscopy. The conditions noted are these: one partner purified.

B1: R217 IgG (antibody, V domains shown)
VH: VQLQQSGPELVKPGTSVKISCKTSGYTFTENTMHWVKQSHGESLDWVGGINTDNGGTTYSQKFKGKATLTVDKSSSTAYMELRSLTSEDSAVYYCSTGYDAMDYWGQGTSVTVSS
VL: NIVLTQSPASLAVSLGQRATISCRASKGVDSYGNSFMHWYQQRPGQPPKLLIYLASHLESGVPARFSGSGSRTDFTLTIDPVEADDAATYYCQQNNEDPFTFGSGTKLEIK
notes: mouse IgG1 heavy chain; its Fab part as the heavy chain of m3 (deposited structure); as the light chain of m3; IgG1 mouse monoclonal antibody; also called R217 antibody
Consider B1, for which the binding result is recorded as “binds”.

B2: R218 IgG (antibody, V domains shown)
VH: EVQLQQSGAELVKPGASVKLSCTASGFNIKDNYMHWVKQRPEQGLEWIGRIDPANGNTKYDPKFQGKATITADTSSNTAYLQLSSLTSEDTAVYYCARHYDGYFLYYFEYWGQGTTLTVSS
VL: DIQMTQTTSSLSASLGDRVTITCRAGQDISNYLNWYQQKPDGTVKLLIYYTSRLHSGVPSRFSGSGSGTDYSLTISNLEQEDIATYFCQQGSTFPWTFGGGTKLEIK
notes: mouse IgG1 heavy chain; its Fab part as the heavy chain of m5 (deposited structure); as the light chain of m5; IgG1 mouse monoclonal antibody; also called R218 antibody
With B2, the binding result is reported as “binds”.
